From patent US20140087995A1 (published 2014)
Numbered stars: 1 amine (or outer) side, 2 acyl side, 3 side chain; on linkers, the order of the positions; unused ones are H or OH. Bridge positions count the residues as written; N and C are the ends. Side chains are listed from the residue outwards. Ends that are not written are not given here. * marks the point of attachment. C20 diacid = O=C(O)CCCCCCCCCCCCCCCCCCC(=O)*; γGlu = O=C(O)[C@H](CCC(=O)[*:2])N[*:1]

T1: rat calcitonin receptor (rat, UniProt P32214 25-516)
T1 construct: whole, on cells; Membranes of transiently transfected BHK tk'ts 13 cells; also called rCTR; rat calcitonin (a) receptor
T1 sequence (looked up): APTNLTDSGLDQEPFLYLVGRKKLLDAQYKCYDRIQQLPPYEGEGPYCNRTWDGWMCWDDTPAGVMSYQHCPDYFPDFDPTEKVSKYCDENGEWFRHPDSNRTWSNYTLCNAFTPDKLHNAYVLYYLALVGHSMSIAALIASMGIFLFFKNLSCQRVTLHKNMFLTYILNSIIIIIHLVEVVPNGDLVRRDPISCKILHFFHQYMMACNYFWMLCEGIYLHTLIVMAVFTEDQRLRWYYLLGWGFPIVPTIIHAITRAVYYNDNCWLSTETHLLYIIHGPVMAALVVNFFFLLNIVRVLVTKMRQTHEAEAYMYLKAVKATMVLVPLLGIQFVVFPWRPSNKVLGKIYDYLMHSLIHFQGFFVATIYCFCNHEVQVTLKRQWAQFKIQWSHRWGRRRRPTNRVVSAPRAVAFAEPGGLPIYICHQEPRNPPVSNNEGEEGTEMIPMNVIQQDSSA

T2: human calcitonin receptor (human, UniProt P30988 25-474)
T2 construct: whole, on cells; Membranes of stably transfected cells; also called hCTR; hCT
T2 sequence (looked up): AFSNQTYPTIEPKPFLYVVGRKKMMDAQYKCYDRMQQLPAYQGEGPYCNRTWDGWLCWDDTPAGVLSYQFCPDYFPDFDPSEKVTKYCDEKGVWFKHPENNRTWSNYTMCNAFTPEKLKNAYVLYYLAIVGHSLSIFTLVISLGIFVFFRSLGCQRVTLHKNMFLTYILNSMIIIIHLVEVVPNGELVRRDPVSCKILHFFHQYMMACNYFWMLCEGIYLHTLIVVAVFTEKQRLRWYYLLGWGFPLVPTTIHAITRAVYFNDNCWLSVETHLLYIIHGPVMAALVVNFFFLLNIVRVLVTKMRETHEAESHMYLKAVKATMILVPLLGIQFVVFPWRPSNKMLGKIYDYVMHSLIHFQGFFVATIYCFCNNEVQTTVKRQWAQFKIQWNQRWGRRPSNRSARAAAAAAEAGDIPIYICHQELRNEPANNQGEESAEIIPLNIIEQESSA

T3: rat amylin receptor (rat calcitonin receptor + rat RAMP 3) (rat, UniProt P32214 25-516; Q9JJ73 23-147)
T3 construct: whole, on cells; Membranes of transiently transfected BHK tk'ts 13 cells; also called rAmylin-R; rat amylin 3(a) receptor
T3 sequence (looked up) 1: T1 sequence (looked up)
T3 sequence (looked up) 2: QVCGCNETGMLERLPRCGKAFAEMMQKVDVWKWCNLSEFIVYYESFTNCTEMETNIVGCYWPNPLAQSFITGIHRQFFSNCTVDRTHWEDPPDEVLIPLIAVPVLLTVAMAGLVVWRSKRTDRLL

B1: N^ε1-[(4S)-4-carboxy-4-[[(4S)-4-carboxy-4-(19-carboxynonadecanoylamino)butanoyl]amino]butanoyl]-[Glu14,Arg17,Pro21,Pro27,Arg34,Glu35]-h-amylin (peptide)
peptide: K([γGlu-γGlu-C20 diacid])CNTATCATQRLAEFLRHSSPNFGAIPSSTNVGRETY-NH2
modifications: disulfide 2-7; N-terminus assumed
SMILES: CC[C@H](C)[C@H](NC(=O)[C@H](C)NC(=O)CNC(=O)[C@H](Cc1ccccc1)NC(=O)[C@H](CC(N)=O)NC(=O)[C@@H]1CCCN1C(=O)[C@H](CO)NC(=O)[C@H](CO)NC(=O)[C@H](Cc1c[nH]cn1)NC(=O)[C@H](CCCNC(=N)N)NC(=O)[C@H](CC(C)C)NC(=O)[C@H](Cc1ccccc1)NC(=O)[C@H](CCC(=O)O)NC(=O)[C@H](C)NC(=O)[C@H](CC(C)C)NC(=O)[C@H](CCCNC(=N)N)NC(=O)[C@H](CCC(N)=O)NC(=O)[C@@H](NC(=O)[C@H](C)NC(=O)[C@@H]1CSSC[C@H](NC(=O)[C@@H](N)CCCCNC(=O)CC[C@H](NC(=O)CC[C@H](NC(=O)CCCCCCCCCCCCCCCCCCC(=O)O)C(=O)O)C(=O)O)C(=O)N[C@@H](CC(N)=O)C(=O)N[C@@H]([C@@H](C)O)C(=O)N[C@@H](C)C(=O)N[C@@H]([C@@H](C)O)C(=O)N1)[C@@H](C)O)C(=O)N1CCC[C@H]1C(=O)N[C@@H](CO)C(=O)N[C@@H](CO)C(=O)N[C@H](C(=O)N[C@@H](CC(N)=O)C(=O)N[C@H](C(=O)NCC(=O)N[C@@H](CCCNC(=N)N)C(=O)N[C@@H](CCC(=O)O)C(=O)N[C@H](C(=O)N[C@@H](Cc1ccc(O)cc1)C(N)=O)[C@@H](C)O)C(C)C)[C@@H](C)O
notes: Synthetic acylated analogue of human amylin
B2: N^ε1-[(4S)-4-carboxy-4-[[(4S)-4-carboxy-4-(19-carboxynonadecanoylamino)butanoyl]amino]butanoyl]-[Glu14,Arg17,Pro21,Pro27,His34,Glu35]-h-amylin (peptide)
peptide: K([γGlu-γGlu-C20 diacid])CNTATCATQRLAEFLRHSSPNFGAIPSSTNVGHETY-NH2
modifications: disulfide 2-7; N-terminus assumed
SMILES: CC[C@H](C)[C@H](NC(=O)[C@H](C)NC(=O)CNC(=O)[C@H](Cc1ccccc1)NC(=O)[C@H](CC(N)=O)NC(=O)[C@@H]1CCCN1C(=O)[C@H](CO)NC(=O)[C@H](CO)NC(=O)[C@H](Cc1c[nH]cn1)NC(=O)[C@H](CCCNC(=N)N)NC(=O)[C@H](CC(C)C)NC(=O)[C@H](Cc1ccccc1)NC(=O)[C@H](CCC(=O)O)NC(=O)[C@H](C)NC(=O)[C@H](CC(C)C)NC(=O)[C@H](CCCNC(=N)N)NC(=O)[C@H](CCC(N)=O)NC(=O)[C@@H](NC(=O)[C@H](C)NC(=O)[C@@H]1CSSC[C@H](NC(=O)[C@@H](N)CCCCNC(=O)CC[C@H](NC(=O)CC[C@H](NC(=O)CCCCCCCCCCCCCCCCCCC(=O)O)C(=O)O)C(=O)O)C(=O)N[C@@H](CC(N)=O)C(=O)N[C@@H]([C@@H](C)O)C(=O)N[C@@H](C)C(=O)N[C@@H]([C@@H](C)O)C(=O)N1)[C@@H](C)O)C(=O)N1CCC[C@H]1C(=O)N[C@@H](CO)C(=O)N[C@@H](CO)C(=O)N[C@H](C(=O)N[C@@H](CC(N)=O)C(=O)N[C@H](C(=O)NCC(=O)N[C@@H](Cc1c[nH]cn1)C(=O)N[C@@H](CCC(=O)O)C(=O)N[C@H](C(=O)N[C@@H](Cc1ccc(O)cc1)C(N)=O)[C@@H](C)O)C(C)C)[C@@H](C)O
notes: as for B1
B3: N^ε1-[(4S)-4-carboxy-4-[[(4S)-4-carboxy-4-(19-carboxynonadecanoylamino)butanoyl]amino]butanoyl]-[Glu14,Arg17,Pro21,Pro27,Pro34,Arg35]-h-amylin (peptide)
peptide: K([γGlu-γGlu-C20 diacid])CNTATCATQRLAEFLRHSSPNFGAIPSSTNVGPRTY-NH2
modifications: disulfide 2-7; N-terminus assumed
SMILES: CC[C@H](C)[C@H](NC(=O)[C@H](C)NC(=O)CNC(=O)[C@H](Cc1ccccc1)NC(=O)[C@H](CC(N)=O)NC(=O)[C@@H]1CCCN1C(=O)[C@H](CO)NC(=O)[C@H](CO)NC(=O)[C@H](Cc1c[nH]cn1)NC(=O)[C@H](CCCNC(=N)N)NC(=O)[C@H](CC(C)C)NC(=O)[C@H](Cc1ccccc1)NC(=O)[C@H](CCC(=O)O)NC(=O)[C@H](C)NC(=O)[C@H](CC(C)C)NC(=O)[C@H](CCCNC(=N)N)NC(=O)[C@H](CCC(N)=O)NC(=O)[C@@H](NC(=O)[C@H](C)NC(=O)[C@@H]1CSSC[C@H](NC(=O)[C@@H](N)CCCCNC(=O)CC[C@H](NC(=O)CC[C@H](NC(=O)CCCCCCCCCCCCCCCCCCC(=O)O)C(=O)O)C(=O)O)C(=O)N[C@@H](CC(N)=O)C(=O)N[C@@H]([C@@H](C)O)C(=O)N[C@@H](C)C(=O)N[C@@H]([C@@H](C)O)C(=O)N1)[C@@H](C)O)C(=O)N1CCC[C@H]1C(=O)N[C@@H](CO)C(=O)N[C@@H](CO)C(=O)N[C@H](C(=O)N[C@@H](CC(N)=O)C(=O)N[C@H](C(=O)NCC(=O)N1CCC[C@H]1C(=O)N[C@@H](CCCNC(=N)N)C(=O)N[C@H](C(=O)N[C@@H](Cc1ccc(O)cc1)C(N)=O)[C@@H](C)O)C(C)C)[C@@H](C)O
notes: Synthetic acylated analogue of human amylin; also called compound 110
B4: N^ε1-[(4S)-4-carboxy-4-[[(4S)-4-carboxy-4-(19-carboxynonadecanoylamino)butanoyl]amino]butanoyl]-[Glu14,Arg17,Pro21,Pro27,Pro34,Glu35,Pro37]-h-amylin (peptide)
peptide: K([γGlu-γGlu-C20 diacid])CNTATCATQRLAEFLRHSSPNFGAIPSSTNVGPETP-NH2
modifications: disulfide 2-7; N-terminus assumed
SMILES: CC[C@H](C)[C@H](NC(=O)[C@H](C)NC(=O)CNC(=O)[C@H](Cc1ccccc1)NC(=O)[C@H](CC(N)=O)NC(=O)[C@@H]1CCCN1C(=O)[C@H](CO)NC(=O)[C@H](CO)NC(=O)[C@H](Cc1c[nH]cn1)NC(=O)[C@H](CCCNC(=N)N)NC(=O)[C@H](CC(C)C)NC(=O)[C@H](Cc1ccccc1)NC(=O)[C@H](CCC(=O)O)NC(=O)[C@H](C)NC(=O)[C@H](CC(C)C)NC(=O)[C@H](CCCNC(=N)N)NC(=O)[C@H](CCC(N)=O)NC(=O)[C@@H](NC(=O)[C@H](C)NC(=O)[C@@H]1CSSC[C@H](NC(=O)[C@@H](N)CCCCNC(=O)CC[C@H](NC(=O)CC[C@H](NC(=O)CCCCCCCCCCCCCCCCCCC(=O)O)C(=O)O)C(=O)O)C(=O)N[C@@H](CC(N)=O)C(=O)N[C@@H]([C@@H](C)O)C(=O)N[C@@H](C)C(=O)N[C@@H]([C@@H](C)O)C(=O)N1)[C@@H](C)O)C(=O)N1CCC[C@H]1C(=O)N[C@@H](CO)C(=O)N[C@@H](CO)C(=O)N[C@H](C(=O)N[C@@H](CC(N)=O)C(=O)N[C@H](C(=O)NCC(=O)N1CCC[C@H]1C(=O)N[C@@H](CCC(=O)O)C(=O)N[C@H](C(=O)N1CCC[C@H]1C(N)=O)[C@@H](C)O)C(C)C)[C@@H](C)O
notes: as for B1
B5: N^ε1-[(4S)-4-carboxy-4-[[(4S)-4-carboxy-4-(19-carboxynonadecanoylamino)butanoyl]amino]butanoyl]-[Glu14,Arg17,Pro21,Pro27,Pro34,His35]-h-amylin (peptide)
peptide: K([γGlu-γGlu-C20 diacid])CNTATCATQRLAEFLRHSSPNFGAIPSSTNVGPHTY-NH2
modifications: disulfide 2-7 (inferred)
notes: as for B1

The binders below were run against T1, rat calcitonin receptor (assay: ratio of IC50 on rat calcitonin receptor to IC50 on rat amylin receptor (reference m40)).

| Binder | Ratio rCT/rAmylin binding |
| --- | --- |
| B1 | 158 |
| B2 | 159 |
| B3 | 113 |
| B4 | 10.6 |
| B5 | 73 |

Each binder was assayed against T2, human calcitonin receptor (assay: ratio of IC50 on human calcitonin receptor to IC50 on human amylin receptor (reference m42), SPA competition).
Method in brief: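 Competition binding by SPA with cell membranes (35 ng/μL) and SPA beads in 50 mM Hepes pH 7.4 with 1 mM CaCl2, 5 mM MgCl2, 0.1% OA and 0.02% Tween20. Incubated 120 min at 25 °C with shaking, then counted.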

| Binder | Ratio hCT/hAmylin binding |
| --- | --- |
| B1 | 14.7 |
| B2 | 29.1 |
| B3 | 53.6 |
| B4 | 0.4 |
| B5 | 27.3 |

What follows are binders tested against T1, rat calcitonin receptor (assay: SPA competition with 125I-calcitonin on membranes of BHK tk'ts 13 cells with rat calcitonin receptor (Assay VIII)).

| Binder | IC50 [nM] |
| --- | --- |
| B1 | 452 |
| B2 | 498 |
| B3 | 38.3 |
| B4 | 1.61 |
| B5 | 21 |

Each binder was assayed against T3, rat amylin receptor (rat calcitonin …) (assay: SPA competition with 125I-rat amylin on membranes of BHK tk'ts 13 cells with rat calcitonin receptor + rat RAMP3 (Assay VI)).

| Binder | IC50 [nM] |
| --- | --- |
| B1 | 2.86 |
| B2 | 3.14 |
| B3 | 0.339 |
| B4 | 0.152 |
| B5 | 0.288 |
